# According to publication PMC11417369, “DNA sequence and chromatin differentiate sequence-specific transcription factor binding in the human malaria parasite Plasmodium falciparum”:
# T1: AP2-G D1 (Plasmodium falciparum, UniProt Q8I5I9 2123-2245)
# T1 sequence: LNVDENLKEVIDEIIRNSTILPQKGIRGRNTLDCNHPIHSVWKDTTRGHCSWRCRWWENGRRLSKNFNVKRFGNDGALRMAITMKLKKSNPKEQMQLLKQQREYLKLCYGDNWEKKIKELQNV
# B1: XGTACX_site8080 (dsDNA)
# DNA 1: AAGCTTAAAAATGGGGGTACGTCATAGGGATTCAAC
# DNA 2: GTTGAATCCCTATGACGTACCCCCATTTTTAAGCTT
# B2: XGTACX_site6680 (dsDNA)
# DNA 1: TTTGTATATTATTTTAGTACATAACATTGAAGATAT
# DNA 2: ATATCTTCAATGTTATGTACTAAAATAATATACAAA
# B3: XGTACX_site4915 (dsDNA)
# DNA 1: AACGAAAACACTACGTGTACCAAACGTCCTACTAAC
# DNA 2: GTTAGTAGGACGTTTGGTACACGTAGTGTTTTCGTT
# B4: XGTACX_site8657 (dsDNA)
# DNA 1: ATTAAGATGTATATATGTACATATTACATACATATA
# DNA 2: TATATGTATGTAATATGTACATATATACATCTTAAT
# B5: XGTACX_site2966 (dsDNA)
# DNA 1: AAACATATAAATCACGGTACACATTATTGAAAGTGT
# DNA 2: ACACTTTCAATAATGTGTACCGTGATTTATATGTTT
# B6: XGTACX_site84 (dsDNA)
# DNA 1: AATTAAATGGATAAATGTACATATGTGAATATATTT
# DNA 2: AAATATATTCACATATGTACATTTATCCATTTAATT
# B7: XGTACX_site1414 (dsDNA)
# DNA 1: CTATAATATTATAACAGTACATAATATTATATATAT
# DNA 2: ATATATATAATATTATGTACTGTTATAATATTATAG
# B8: XGTACX_site8514 (dsDNA)
# DNA 1: AGTATTATATATATATGTACATAATATACATATATA
# DNA 2: TATATATGTATATTATGTACATATATATATAATACT
# B9: XGTACX_site5503 (dsDNA)
# DNA 1: TATATATATATAGGTTGTACATTTTGATGTTTACGT
# DNA 2: ACGTAAACATCAAAATGTACAACCTATATATATATA
# B10: XGTACX_site841 (dsDNA)
# DNA 1: TATATATATAATATATGTACTGATATGCTATTTACT
# DNA 2: AGTAAATAGCATATCAGTACATATATTATATATATA
# B11: XGTACX_site1737 (dsDNA)
# DNA 1: AGATCTATTATTTTTTGTACTTATATATAAACTTAA
# DNA 2: TTAAGTTTATATATAAGTACAAAAAATAATAGATCT
# B12: XGTACX_site8642 (dsDNA)
# DNA 1: CAAAGCATAGTATGATGTACAAATGTTCCTATAATA
# DNA 2: TATTATAGGAACATTTGTACATCATACTATGCTTTG
# B13: XGTACX_site7911 (dsDNA)
# DNA 1: TAGCATGATTTGCCTTGTACACAACCGTTTTAATAA
# DNA 2: TTATTAAAACGGTTGTGTACAAGGCAAATCATGCTA
# B14: XGTACX_site4853 (dsDNA)
# DNA 1: TTTGACACAATATTTTGTACGAAACTATTAATTCAA
# DNA 2: TTGAATTAATAGTTTCGTACAAAATATTGTGTCAAA
# B15: XGTACX_site5737 (dsDNA)
# DNA 1: TAATGGAATACATATAGTACATAATATTACATACAT
# DNA 2: ATGTATGTAATATTATGTACTATATGTATTCCATTA
# B16: XGTACX_site4821 (dsDNA)
# DNA 1: AATAAAACATCATCATGTACAAAATTCGTCTTTGTA
# DNA 2: TACAAAGACGAATTTTGTACATGATGATGTTTTATT
# B17: XGTACX_site2720 (dsDNA)
# DNA 1: TCCTATTTTATATAATGTACATAAATATATTACATA
# DNA 2: TATGTAATATATTTATGTACATTATATAAAATAGGA
# B18: XGTACX_site5674 (dsDNA)
# DNA 1: TATCTAGTTACTCCTTGTACATAATAAATGATTTTT
# DNA 2: AAAAATCATTTATTATGTACAAGGAGTAACTAGATA
# B19: XGTACX_site8705 (dsDNA)
# DNA 1: ACTAAAGTGTATCACTGTACAATTCTTCTCTTTTTT
# DNA 2: AAAAAAGAGAAGAATTGTACAGTGATACACTTTAGT
# B20: XGTACX_site150 (dsDNA)
# DNA 1: ATATACATATATATATGTACTGAAAAGAAAAGAATT
# DNA 2: AATTCTTTTCTTTTCAGTACATATATATATGTATAT
# B21: XGTACX_site5487 (dsDNA)
# DNA 1: ACAAGTTTAACATTTCGTACTTATTGTGTTTTTTTT
# DNA 2: AAAAAAAACACAATAAGTACGAAATGTTAAACTTGT
# B22: XGTACX_site8691 (dsDNA)
# DNA 1: AAAAATATTTTGGTTTGTACATATATTTTTACAATA
# DNA 2: TATTGTAAAAATATATGTACAAACCAAAATATTTTT
# B23: XGTACX_site2945 (dsDNA)
# DNA 1: AAGCATAAAGTATATAGTACATATATATATATATAT
# DNA 2: ATATATATATATATATGTACTATATACTTTATGCTT
# B24: XGTACX_site5139 (dsDNA)
# DNA 1: TATATACAGAATATATGTACATATTCATTTTATATT
# DNA 2: AATATAAAATGAATATGTACATATATTCTGTATATA
# B25: XGTACX_site583 (dsDNA)
# DNA 1: ATAATATATATATAGTGTACATTTGAATATATTTGA
# DNA 2: TCAAATATATTCAAATGTACACTATATATATATTAT
# B26: XGTACX_site4930 (dsDNA)
# DNA 1: TGGAGGATAGTTCACAGTACCCAGTAACTCTACGGA
# DNA 2: TCCGTAGAGTTACTGGGTACTGTGAACTATCCTCCA
# B27: XGTACX_site8448 (dsDNA)
# DNA 1: AGGTTTCATTTAGCATGTACATATTATAAAAATTGT
# DNA 2: ACAATTTTTATAATATGTACATGCTAAATGAAACCT
# B28: XGTACX_site8539 (dsDNA)
# DNA 1: AAATAAAGTAAAATATGTACATAAATTAAAACACAT
# DNA 2: ATGTGTTTTAATTTATGTACATATTTTACTTTATTT
# B29: XGTACX_site4926 (dsDNA)
# DNA 1: ATCAACATTATGGTTAGTACTTAGTGAATTGTTAAT
# DNA 2: ATTAACAATTCACTAAGTACTAACCATAATGTTGAT
# B30: XGTACX_site3550 (dsDNA)
# DNA 1: AATATTAAAGAATAATGTACAAAATAAAAGCAAAGA
# DNA 2: TCTTTGCTTTTATTTTGTACATTATTCTTTAATATT
# B31: XGTACX_site4551 (dsDNA)
# DNA 1: ATATATATATATATTTGTACTTACATTTTTATTTAT
# DNA 2: ATAAATAAAAATGTAAGTACAAATATATATATATAT
# B32: XGTACX_site5309 (dsDNA)
# DNA 1: CTATACAATAAAAATTGTACATACATATATGTTATA
# DNA 2: TATAACATATATGTATGTACAATTTTTATTGTATAG
# Molecular target: T1, AP2-G D1
# Test: gcPBM; about 25 ug protein; PBS, 1% milk, 0.2 mg/ml BSA, salmon testes DNA, 0.03% Triton X-100
# Settings: tags: N-terminal GST (pGEX-4T-1), kept; label: surface-attached array probe
row,Binder,binding signal
1,B1,"11.7 ln median PBM intensity, better of two orientations"
2,B2,"11.4 ln median PBM intensity, better of two orientations"
3,B3,"11.5 ln median PBM intensity, better of two orientations"
4,B4,"11.4 ln median PBM intensity, better of two orientations"
5,B5,"11.6 ln median PBM intensity, better of two orientations"
6,B6,"11.4 ln median PBM intensity, better of two orientations"
7,B7,"10.8 ln median PBM intensity, better of two orientations"
8,B8,"11.6 ln median PBM intensity, better of two orientations"
9,B9,"11.5 ln median PBM intensity, better of two orientations"
10,B10,"11 ln median PBM intensity, better of two orientations"
11,B11,"11.5 ln median PBM intensity, better of two orientations"
12,B12,"11 ln median PBM intensity, better of two orientations"
13,B13,"11.7 ln median PBM intensity, better of two orientations"
14,B14,"11 ln median PBM intensity, better of two orientations"
15,B15,"11.3 ln median PBM intensity, better of two orientations"
16,B16,"10.6 ln median PBM intensity, better of two orientations"

row,Binder,binding signal
1,B17,"11.5 ln median PBM intensity, better of two orientations"
2,B18,"11 ln median PBM intensity, better of two orientations"
3,B19,"10.9 ln median PBM intensity, better of two orientations"
4,B20,"11.4 ln median PBM intensity, better of two orientations"
5,B21,"10.9 ln median PBM intensity, better of two orientations"
6,B22,"11.5 ln median PBM intensity, better of two orientations"
7,B23,"11.3 ln median PBM intensity, better of two orientations"
8,B24,"11.4 ln median PBM intensity, better of two orientations"
9,B25,"11.6 ln median PBM intensity, better of two orientations"
10,B26,"10.9 ln median PBM intensity, better of two orientations"
11,B27,"11.6 ln median PBM intensity, better of two orientations"
12,B28,"11.6 ln median PBM intensity, better of two orientations"
13,B29,"11 ln median PBM intensity, better of two orientations"
14,B30,"10.9 ln median PBM intensity, better of two orientations"
15,B31,"11.6 ln median PBM intensity, better of two orientations"
16,B32,"11.3 ln median PBM intensity, better of two orientations"
